Where only a bound is given, the exact number is not on record here.

Assay [1] addresses purified human IgM (#16-16-090713-M, Athens Research & Technology) (human). The assay is described as follows: cell-based or functional assay.
The target of assay [2] is human IgG (IVIg, Gamunex) (human). The assay is described as follows: cell-based or functional assay.
The target in assay [3] is purified human IgM (#16-16-090713-M, Athens Research & Technology) (human). The assay is described as follows: Western blot of DTT-reduced purified human IgM titrated 1250 to 4.8 ng/well. In general terms: Immunoblotting shows a protein as a band on a membrane.

As to “imlifidase (IdeS), immunoglobulin G-degrading cysteine protease of S. pyogenes (enzyme)”, in assay [1], the cleavage on SDS-PAGE was greater than 200 µg/mL and the digestion on SDS-PAGE gel was greater than 200 µg/mL. In assay [2], this substance came in with a cleavage on SDS-PAGE (full cleavage) of 2 µg/mL and a cleavage on SDS-PAGE (to scIgG) of 0.2 µg/mL.
Substance “PE-conjugated donkey anti-human IgM (#IGM-PEC1, One Lambda) (antibody)” gave a detection limit (lowest IgM amount with visible band) in assay [3] of 19 ng/well.
